Paper PMC11160874 (2024)

What was measured:
[1] = target: T1, microtubule (alpha/beta-tubulin, taxol-stabilized) (Sus scrofa, UniProt P02550); assay: TIRF microscopy, 150 mM salt
T1 chain 1: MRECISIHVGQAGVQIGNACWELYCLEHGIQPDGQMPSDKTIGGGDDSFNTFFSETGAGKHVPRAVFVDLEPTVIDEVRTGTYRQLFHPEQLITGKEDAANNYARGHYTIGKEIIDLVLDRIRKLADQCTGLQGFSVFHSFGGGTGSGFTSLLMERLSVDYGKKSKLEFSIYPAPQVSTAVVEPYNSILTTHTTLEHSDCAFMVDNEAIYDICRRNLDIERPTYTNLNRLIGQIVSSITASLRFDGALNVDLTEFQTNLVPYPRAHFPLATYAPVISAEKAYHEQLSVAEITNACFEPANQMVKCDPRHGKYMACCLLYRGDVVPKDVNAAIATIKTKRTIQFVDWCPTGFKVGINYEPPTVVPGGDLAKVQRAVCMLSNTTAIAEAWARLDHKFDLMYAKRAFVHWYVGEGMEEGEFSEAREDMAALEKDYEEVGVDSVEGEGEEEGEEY
T1 chain 2: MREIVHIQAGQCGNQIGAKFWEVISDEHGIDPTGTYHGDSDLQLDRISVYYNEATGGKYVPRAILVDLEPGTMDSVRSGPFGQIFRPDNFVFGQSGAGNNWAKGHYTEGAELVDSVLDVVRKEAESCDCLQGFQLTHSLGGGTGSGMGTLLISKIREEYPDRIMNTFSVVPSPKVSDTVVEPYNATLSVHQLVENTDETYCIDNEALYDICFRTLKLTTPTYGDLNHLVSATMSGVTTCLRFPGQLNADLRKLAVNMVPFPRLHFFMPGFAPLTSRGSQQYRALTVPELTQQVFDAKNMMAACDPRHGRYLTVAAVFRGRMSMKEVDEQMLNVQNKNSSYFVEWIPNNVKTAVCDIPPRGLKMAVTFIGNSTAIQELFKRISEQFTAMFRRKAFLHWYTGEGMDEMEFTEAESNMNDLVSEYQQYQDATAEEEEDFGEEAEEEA

[2] = target: T1, microtubule (alpha/beta-tubulin, …); assay: TIRF microscopy, no added salt

- Kd [1]: ~600 nM
- Kd [2]: ~33 nM
B1: HURP 1-285 (protein)
chain: MSSSHFASRHRKDISTEMIRTKIAHRKSLSQKENRHKEYERNRHFGLKDVNIPTLEGRILVELDETSQGLVPEKTNVKPRAMKTILGDQRKQMLQKYKEEKQLQKLKEQREKAKRGIFKVGRYRPDMPCFLLSNQNAVKAEPKKAIPSSVRITRSKAKDQMEQTKIDNESDVRAIRPGPRQTSEKKVSDKEKKVVQPVMPTSLRMTRSATQAAKQVPRTVSSTTARKPVTRAANENEPEGKVPSKGRPAKNVETKPDKGISCKVDSEENTLNSQTNATSGMNPDG
modifications: C-terminal eGFP, taxol-stabilized microtubules
